Measurements as given in US20230227838A1, “ENHANCED CELL SURVIVAL AGAINST BIOTIC AND ABIOTIC STRESSES THROUGH SALICYLICK ACID-INDUCED NPR1 CONDENSATES” (priority 2020, published 2023).

Tests used:
[1] = system: CUL3; assay: Co-IP of Myc-CUL3 with HA-fused NPR1 or variants; assay type: binding, Arabidopsis thaliana
Method: (§1) Plant transformation: For plant transformations, the Agrobacterium tumefaciens strain GV3101 was transformed with plant binary vectors carrying the indicated transgenes. For stable expression in Arabidopsis, a floral dipping method was used. For transient expression in N benthamiana, the Agrobacterium carrying the indicated construct was cultured overnight at 28° C. in Luria-Bertani (LB) broth medium supplemented with appropriate antibiotics: spectinomycin (100 μg/ml), kanamycin (50 μg/ml), gentamycin (50 μg/ml), and rifampicin (25 μg/ml). The obtained culture was re-inoculated at 1:10 into fresh growth media with antibiotics and grown for another 4 hr. Cells were then spun down at 1,600 g for 10 min, and inoculum was prepared by resuspending cells to OD600 nm=1 in double distilled water (DDW) containing 200 μM acetosyringone (Sigma). Unless otherwise stated, for co-IP, co-localization, and BiFC assays in N. benthamiana, the proteins were co-expressed at 1:1 mixture of the relevant Agrobacteria inoculums. In all BiFC assays, the pair of YN/YC fusions was co-expressed together with free mCherry to mark the cytoplasm and nucleus, mCherry-NLS to mark the nucleus only, or mCherry-fused test proteins for co-localization analysis. The inoculum was pressure infiltrated into N. benthamiana leaves at the abaxial side using 1 ml syringe without the needle. Due to low overall levels of NPR1-GFP in transgenic plants, a transient expression assay in Arabidopsis seedlings was used to monitor NPR1-GFP subcellular localization after SA treatment (FIG. 2B). To limit the imaging time in this transient assay (2 hours), a higher baseline SA concentration had to be used. Seeds of WT (Col-0) Arabidopsis were germinated on solid half-strength Murashige and Skoog (1/2 MS) medium and grown for 4 days. Agrobacterium carrying the indicated constructs was grown overnight in LB medium supplemented with appropriate antibiotics. The obtained culture was re-inoculated at 1:10 into virulence induction medium [50.78 mM MES, 0.5% Glucose, 1.734 mM NaH2PO4, 5% of 20X-AB mix (373.9 mM NH4C1, 24.34 mM MgSO4, 40.23 mM KCl, 1.36 mM CaCl2 and 0.18 mM FeSO4·7H2O), 200 μM acetosyringone] supplemented with 25 μg/ml rifampicin and grown for another 24 hr at 28° C. to OD600=0.8 (inoculum). Seedlings were vacuum-infiltrated with the inoculum, and at 48 hpi (hours post inoculation), treatments were performed by submerging the transformed seedlings in water or SA solution at indicated concentrations for 2 hr. Entire cotyledons were sampled for microscopy.
Protein analysis and IP. Recombinant protein analysis was performed using transient expression in N. benthamiana, or stable over-expression in transgenic Arabidopsis, or expression in E. coli. Total protein extraction from plants was performed by homogenizing leaf tissue in the plant extraction buffer [50 mM Tris-HCl (pH 7.5), 150 mM NaCl, 5 mM EDTA, 0.2% Triton X-100, 0.2% Nonidet P-40] supplemented with 1 mM PMSF, 100 μM MG132, and EDTA-free protease inhibitor cocktail (Roche). For ubiquitinated protein analysis in plants, 100 μM of DUB (deubiquitinase) inhibitor (LifeSensors) and 10 mM NEM were added. Next, the lysates were cleared by centrifugation at 14,000 rpm for 15 min followed by filtering through a 0.2 μm filter. […] Pull-downs or IP experiments were done on total protein extracts by incubating protein samples in the lysis buffer overnight with indicated affinity tag or antibody conjugated to agarose or magnetic beads: GFP-trap agarose beads (Chromotek) for GFP fusions; RFP-trap agarose beads (Chromotek) for mCherry fusions; anti-HA magnetic beads (ThermoFisher) for HA tag fusions; anti-DYKDDDDK coupled magnetic agarose (ThermoFisher) for FLAG tag fusions; and glutathione magnetic agarose (ThermoFisher) for GST fusions. Unless otherwise indicated, after pull-down/IP, beads were washed 3 times and proteins were eluted by boiling in the 2×SDS sample buffer. […]

[2] = system: cytoplasmic condensates (SINCs); assay: Confocal imaging of localization and condensate (body) formation of GFP-fused NPR proteins and variants; assay type: cell-based, Nicotiana benthamiana; settings: for SA-induced cytoplasmic body/condensate (SINC) formation: 5 mM SA for 2 hr
Method: as §1
Confocal laser scanning microscopy. Unless otherwise indicated, all imaging data and micrographs for single protein imaging, co-localizations, BiFC and time-lapse were obtained from the transient expression in N. benthamiana using the relevant Agrobacteria strains. All imaging was done with confocal laser scanning fluorescence microscopy using Zeiss 880 airyscan inverted confocal microscope with a 40×/1.2 water correction objective. GFP (eGFP) was excited with a 488 nm argon laser and emission was collected with a 505-530 nm band pass filter. YFP was excited with an argon laser using a 514 nm beam splitter, and emission was detected with a 520-555 nm band pass filter. mCherry was excited with a 561 nm diode laser, and emission was detected with a 575-615 nm band pass filter. When eGFP/YFP were imaged together with mCherry, a spectral GASP detector was used to collect emission from eGFP/YFP. Propidium iodide (PI) was excited with 488 nm argon laser and emission was detected with a 590-620 nm band pass filter. Time-lapse imaging was carried out on live leaf tissue samples from N. benthamiana plants transiently expressing the protein of interest. Image acquisition was done in 5 min intervals for the duration of 2 hr by scanning 30 consecutive focal planes along the Z-axis covering the entire thickness of an epidermal cell. Z-projection was done to each time frame stack before composing a final time-lapse file. […]

Row | Molecule | CUL3 pull-down in co-IP in the absence of SA [1] | SA-induced cytoplasmic body/condensate (SINC) formation [2] | other results
1 | BTB: BTB domain of NPR1 corresponding to amino acids 65-144 of SEQ ID NO: 1 (protein, listed as Arabidopsis thaliana) SDAKLVLSDGREVSFHRCVLSARSSFFKSALAAAKKEKDSNNTAAVKLELKEIAKDYEVGFDSVVTVLAYVYSSRVRPPP | sufficient to strongly pulldown CUL3 even in the absence of SA | – | –
2 | nls: NPR1 point mutant with enhanced cytoplasmic localization, blocking nuclear function (protein, left off: small tags and cut ends) MDTTIDGFADSYEISSTSFVATDNTDSSIVYLAAEQVLTGPDVSALQLLSNSFESVFDSPDDFYSDAKLVLSDGREVSFHRCVLSARSSFFKSALAAAKKEKDSNNTAAVKLELKEIAKDYEVGFDSVVTVLAYVYSSRVRPPPKGVSECADENCCHVACRPAVDFMLEVLYLAFIFKIPELITLYQRHLLDVVDKVVIEDTLVILKLANICGKACMKLLDRCKEIIVKSNVDMVSLEKSLPEELVKEIIDRRKELGLEVPKVKKHVSNVHKALDSDDIELVKLLLKEDHTNLDDACALHFAVAYCNVKTATDLLKLDLADVNHRNPRGYTVLHVAAMRKEPQLILSLLEKGASASEATLEGRTALMIAKQATMAVECNNIPEQCKHSLKGRLCVEILEQEDKREQIPRDVPPSFAVAADELKMTLLDLENRVALAQRLFPTEAQAAMEIAEMKGTCEFIVTSLEPDRLTGTKRTSPGVKIAPFRILEEHQSRLKALSKTVELGKRFFPRCSAVLDQIMNCEDLTQLACGEDDTAEKRLQQQQGYMEIQETLQQAFSEDNLELGNSSLTDSTSSTSKSTGGKRSNRKLSHRRR | – | – | CUL3 pull-down signal in co-IP ([1]; 1 mM SA for 5 hr): significantly stronger CUL3 pull-down signals
3 | NPR4: Arabidopsis NPR1 paralog AtNPR4 (AT4G19660) (protein, UniProt Q5ICL9 1-574, looked up) Regulatory protein NPR4: MAATAIEPSSSISFTSSHLSNPSPVVTTYHSAANLEELSSNLEQLLTNPDCDYTDAEIIIEEEANPVSVHRCVLAARSKFFLDLFKKDKDSSEKKPKYQMKDLLPYGNVGREAFLHFLSYIYTGRLKPFPIEVSTCVDSVCAHDSCKPAIDFAVELMYASFVFQIPDLVSSFQRKLRNYVEKSLVENVLPILLVAFHCDLTQLLDQCIERVARSDLDRFCIEKELPLEVLEKIKQLRVKSVNIPEVEDKSIERTGKVLKALDSDDVELVKLLLTESDITLDQANGLHYAVAYSDPKVVTQVLDLDMADVNFRNSRGYTVLHIAAMRREPTIIIPLIQKGANASDFTFDGRSAVNICRRLTRPKDYHTKTSRKEPSKYRLCIDILEREIRRNPLVSGDTPTCSHSMPEDLQMRLLYLEKRVGLAQLFFPAEANVAMDVANVEGTSECTGLLTPPPSNDTTENLGKVDLNETPYVQTKRMLTRMKALMKTVETGRRYFPSCYEVLDKYMDQYMDEEIPDMSYPEKGTVKERRQKRMRYNELKNDVKKAYSKDKVARSCLSSSSPASSLREALENPT | – | fail to form cytoplasmic condensates | –
4 | ACTD: NPR1 with the C-terminal domain (CTD) deleted (protein, left off: small tags and cut ends, NPR1 with the C-terminal domain (CTD) deleted) MDTTIDGFADSYEISSTSFVATDNTDSSIVYLAAEQVLTGPDVSALQLLSNSFESVFDSPDDFYSDAKLVLSDGREVSFHRCVLSARSSFFKSALAAAKKEKDSNNTAAVKLELKEIAKDYEVGFDSVVTVLAYVYSSRVRPPPKGVSECADENCCHVACRPAVDFMLEVLYLAFIFKIPELITLYQRHLLDVVDKVVIEDTLVILKLANICGKACMKLLDRCKEIIVKSNVDMVSLEKSLPEELVKEIIDRRKELGLEVPKVKKHVSNVHKALDSDDIELVKLLLKEDHTNLDDACALHFAVAYCNVKTATDLLKLDLADVNHRNPRGYTVLHVAAMRKEPQLILSLLEKGASASEATLEGRT | significantly enhanced the interaction with CUL3 | – | condensate formation in the absence of SA (constitutive) ([2]; no SA treatment / mock): formed constitutive condensates
5 | NPR3: Arabidopsis NPR1 paralog AtNPR3 (AT5G45110) (protein, UniProt Q8L746 1-586, looked up) Regulatory protein NPR3: MATLTEPSSSLSFTSSHFSYGSIGSNHFSSSSASNPEVVSLTKLSSNLEQLLSNSDCDYSDAEIIVDGVPVGVHRCILAARSKFFQDLFKKEKKISKTEKPKYQLREMLPYGAVAHEAFLYFLSYIYTGRLKPFPLEVSTCVDPVCSHDCCRPAIDFVVQLMYASSVLQVPELVSSFQRRLCNFVEKTLVENVLPILMVAFNCKLTQLLDQCIERVARSDLYRFCIEKEVPPEVAEKIKQLRLISPQDEETSPKISEKLLERIGKILKALDSDDVELVKLLLTESDITLDQANGLHYSVVYSDPKVVAEILALDMGDVNYRNSRGYTVLHFAAMRREPSIIISLIDKGANASEFTSDGRSAVNILRRLTNPKDYHTKTAKGRESSKARLCIDILEREIRKNPMVLDTPMCSISMPEDLQMRLLYLEKRVGLAQLFFPTEAKVAMDIGNVEGTSEFTGLSPPSSGLTGNLSQVDLNETPHMQTQRLLTRMVALMKTVETGRRFFPYGSEVLDKYMAEYIDDDILDDFHFEKGSTHERRLKRMRYRELKDDVQKAYSKDKESKIARSCLSASSSPSSSSIRDDLHNTT | – | fail to form cytoplasmic condensates | –
6 | CTD: C-terminal domain (CTD) of NPR1 (protein, left off: large carriers, C-terminal domain (CTD) of NPR1) ALMIAKQATMAVECNNIPEQCKHSLKGRLCVEILEQEDKREQIPRDVPPSFAVAADELKMTLLDLENRVALAQRLFPTEAQAAMEIAEMKGTCEFIVTSLEPDRLTGTKRTSPGVKIAPFRILEEHQSRLKALSKTVELGKRFFPRCSAVLDQIMNCEDLTQLACGEDDTAEKRLQKKQRYMEIQETLKKAFSEDNLELGNSSLTDSTSSTSKSTGGKRSNRKLSHRRR | – | – | competition with CUL3 for interaction with BTB ([1]; Myc-CUL3, BTB-HA and CTD-GFP co-expressed): outcompeted CUL3 for interaction with BTB
